± gives the uncertainty stated by the source.

The labels stand for the following.
B1: WW domain-containing transcription regulator protein 1, residues 116 to 162; numbered along this chain, Q9GZV5 (parent)
chain: QSYDVTDELPLPPGWEMTFTATGQRYFLNHIEKITTWQDPRKAMNQP

The variants in the data set derive from B1. Put plainly: abundance fitness (aPCA) (normalised: wild type 0, dead -1); higher = more abundant; growth selection in yeast, the domain comes from the species named. As to conditions: Homo sapiens.
Regarding D4W, the abundance fitness was -0.381 ± 0.059.
The same measure for D4P: -0.071 ± 0.051.
For the variant D4Y, the abundance fitness was determined as 0.048 ± 0.057.
In the case of D4H, the abundance fitness was -0.207 ± 0.061.
Next, D4A: -0.083 ± 0.035; D4T: -0.162 ± 0.048.
For the variant D4C, the abundance fitness was 0.049 ± 0.045.
With D4L, the abundance fitness was -0.147 ± 0.031.
Next, D4K: -0.014 ± 0.043; D4N: 0.053 ± 0.033.
Next, D4G: -0.198 ± 0.036.
The same measure for D4S: -0.089 ± 0.039; for D4Q: -0.404 ± 0.053.
D4E: the abundance fitness is -0.072 ± 0.043.
The same measure for D4I: -0.189 ± 0.063; for D4R: -0.151 ± 0.025; for D4F: -0.152 ± 0.062.
The same measure for V5P: -0.224 ± 0.048.
The same measure for V5C: -0.126 ± 0.032; for V5S: -0.053 ± 0.032.
For V5R, the abundance fitness is -0.111 ± 0.035.
For V5Y, the abundance fitness was -0.354 ± 0.081.
The same measure for V5A: -0.088 ± 0.036; for V5L: -0.103 ± 0.025.
The same measure for V5G: -0.194 ± 0.03; for V5Q: -0.145 ± 0.046.
Consider V5E, for which the abundance fitness was -0.088 ± 0.042.
Regarding V5I, the abundance fitness was found to be 0.029 ± 0.036.
Regarding V5H, the abundance fitness is -0.231 ± 0.059.
Next, V5N: -0.033 ± 0.049; V5M: -0.026 ± 0.035.
Next, V5T: 0.011 ± 0.044.
Next, V5K: -0.023 ± 0.038.
Regarding E8L, the abundance fitness is -0.253 ± 0.041.
The same measure for E8A: -0.027 ± 0.026.
Take E8S: the abundance fitness was -0.071 ± 0.039.
For E8D, the abundance fitness is -0.084 ± 0.056.
The same measure for E8I: -0.274 ± 0.087; for E8G: -0.07 ± 0.03.
For the variant E8T, the abundance fitness was found to be 0.01 ± 0.047.
Turning to E8P, the abundance fitness was -0.09 ± 0.039.
For E8F, the abundance fitness was -0.302 ± 0.066.
The same measure for E8W: -0.78 ± 0.062.
As to E8V, the abundance fitness was -0.118 ± 0.035.
In the case of E8N, the abundance fitness was -0.128 ± 0.056.
As for E8M, the abundance fitness came out at 0.065 ± 0.055.
Next, E8R: -0.109 ± 0.04; E8Y: -0.248 ± 0.067; E8C: -0.163 ± 0.057.
The same measure for E8K: -0.005 ± 0.041; for T6R: -0.086 ± 0.031; for T6A: -0.196 ± 0.037.
Regarding T6D, the abundance fitness is -0.104 ± 0.044.
On to T6S, for which the abundance fitness was -0.03 ± 0.036.
For the variant T6N, the abundance fitness was -0.198 ± 0.06.
The same measure for T6L: -0.104 ± 0.029; for T6P: -0.013 ± 0.045; for T6M: -0.008 ± 0.035.
Next, T6F: -0.074 ± 0.052; T6E: -0.216 ± 0.041; T6C: -0.071 ± 0.056.
Consider T6I, for which the abundance fitness was -0.032 ± 0.046.
Next, T6Y: -0.189 ± 0.054.
For T6Q, the abundance fitness was -0.142 ± 0.044.
Regarding T6V, the abundance fitness is -0.06 ± 0.026.
For T6H, the abundance fitness was -0.352 ± 0.067.
Take Q1G: the abundance fitness is -0.163 ± 0.059.
Next, Q1Y: -0.132 ± 0.13.
Q1M: the abundance fitness was 0.26 ± 0.1.
Q1A: the abundance fitness is -0.519 ± 0.15.
The same measure for Q1H: -0.704 ± 0.32; for Q1I: 0.001 ± 0.38.
Next, Q1E: -0.182 ± 0.062; Q1R: -0.365 ± 0.065.
As for Q1V, the abundance fitness is -0.45 ± 0.09.
Turning to Q1D, the abundance fitness is -0.005 ± 0.069.
Turning to Q1T, the abundance fitness is -0.492 ± 0.18.
The same measure for Y3M: 0.182 ± 0.11; for Y3I: 0.274 ± 0.13.
Next, Y3L: -0.323 ± 0.48; Y3H: 0.013 ± 0.14; Y3P: 0.087 ± 0.28.
The same measure for Y3C: 0.262 ± 0.1; for Y3Q: -0.2 ± 0.031; for Y3V: -0.472 ± 0.48.
Consider D7A, for which the abundance fitness was -0.049 ± 0.027.
For D7S, the abundance fitness is -0.104 ± 0.038.
Next, D7H: 0.053 ± 0.055; D7V: -0.207 ± 0.035.
For the variant D7M, the abundance fitness is -0.185 ± 0.049.
Next, D7I: -0.195 ± 0.055; D7K: -0.041 ± 0.039; D7Q: -0.178 ± 0.053.
Regarding D7C, the abundance fitness is -0.202 ± 0.05.
Next, D7T: -0.065 ± 0.056; D7Y: -0.268 ± 0.049.
For D7N, the abundance fitness is -0.041 ± 0.032.
As for D7E, the abundance fitness is -0.314 ± 0.05.
Consider D7G, for which the abundance fitness was -0.154 ± 0.035.
Next, D7F: -0.312 ± 0.033; D7W: -0.45 ± 0.047; D7R: -0.166 ± 0.041.
Next, L9H: -0.043 ± 0.049.
Turning to L9W, the abundance fitness was -0.087 ± 0.032.
Take L9C: the abundance fitness is -0.103 ± 0.04.

The values above are taken from the Human Domainome abundance scans (Beltran et al. 2025).
